Publication doi:10.1101/2025.08.01.668158

Tests used:
[1] = target: T1, SpDis3L2(D461N)ΔN168 (Schizosaccharomyces pombe, UniProt O14040 168-927, D461N); assay: X-ray crystallography
T1 sequence: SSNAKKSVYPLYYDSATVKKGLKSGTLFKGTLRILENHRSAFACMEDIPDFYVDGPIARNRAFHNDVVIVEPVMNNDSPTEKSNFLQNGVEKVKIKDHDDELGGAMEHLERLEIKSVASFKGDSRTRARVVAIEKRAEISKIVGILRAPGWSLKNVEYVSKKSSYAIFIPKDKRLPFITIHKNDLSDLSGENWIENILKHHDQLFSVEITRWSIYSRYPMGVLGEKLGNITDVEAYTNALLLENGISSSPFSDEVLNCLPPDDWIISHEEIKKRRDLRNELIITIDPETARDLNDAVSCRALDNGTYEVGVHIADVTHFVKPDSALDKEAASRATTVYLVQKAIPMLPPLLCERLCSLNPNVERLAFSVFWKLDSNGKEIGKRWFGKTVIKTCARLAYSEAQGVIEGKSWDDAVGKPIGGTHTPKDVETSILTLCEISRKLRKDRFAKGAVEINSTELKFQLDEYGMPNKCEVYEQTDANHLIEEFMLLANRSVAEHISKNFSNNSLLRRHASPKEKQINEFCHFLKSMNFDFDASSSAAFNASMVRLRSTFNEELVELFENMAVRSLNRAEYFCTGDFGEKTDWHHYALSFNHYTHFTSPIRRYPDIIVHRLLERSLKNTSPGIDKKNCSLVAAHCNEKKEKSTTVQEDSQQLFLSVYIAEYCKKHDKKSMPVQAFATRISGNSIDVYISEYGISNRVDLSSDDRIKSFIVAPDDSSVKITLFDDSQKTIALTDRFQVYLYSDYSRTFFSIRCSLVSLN

[2] = target: T2, SpDis3L2 A756R (Schizosaccharomyces pombe, UniProt O14040 1-927, A756R); assay: EMSA
T2 sequence: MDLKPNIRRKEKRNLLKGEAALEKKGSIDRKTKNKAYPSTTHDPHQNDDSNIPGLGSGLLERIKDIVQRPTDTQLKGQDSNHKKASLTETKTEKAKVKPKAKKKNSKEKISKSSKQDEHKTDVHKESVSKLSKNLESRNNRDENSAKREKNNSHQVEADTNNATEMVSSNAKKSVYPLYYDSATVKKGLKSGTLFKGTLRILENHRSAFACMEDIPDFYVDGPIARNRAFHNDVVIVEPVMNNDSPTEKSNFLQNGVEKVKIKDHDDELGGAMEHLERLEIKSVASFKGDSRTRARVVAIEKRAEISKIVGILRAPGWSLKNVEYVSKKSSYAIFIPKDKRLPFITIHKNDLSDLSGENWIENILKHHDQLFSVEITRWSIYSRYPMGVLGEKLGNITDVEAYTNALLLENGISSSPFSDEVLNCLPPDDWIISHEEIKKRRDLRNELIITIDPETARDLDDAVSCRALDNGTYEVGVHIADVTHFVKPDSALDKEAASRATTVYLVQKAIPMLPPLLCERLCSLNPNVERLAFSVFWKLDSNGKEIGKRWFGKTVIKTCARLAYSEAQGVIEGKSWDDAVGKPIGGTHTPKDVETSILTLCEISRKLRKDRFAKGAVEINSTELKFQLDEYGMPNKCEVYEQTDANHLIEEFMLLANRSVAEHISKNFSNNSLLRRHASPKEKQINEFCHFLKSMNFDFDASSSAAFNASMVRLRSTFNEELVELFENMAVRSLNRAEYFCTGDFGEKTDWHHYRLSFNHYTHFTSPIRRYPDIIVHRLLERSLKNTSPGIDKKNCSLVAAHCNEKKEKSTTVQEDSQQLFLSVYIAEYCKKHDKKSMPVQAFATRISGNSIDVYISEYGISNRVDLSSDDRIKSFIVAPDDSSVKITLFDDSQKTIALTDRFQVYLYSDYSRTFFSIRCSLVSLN

[3] = target: T3, SpDis3L2 WT (Schizosaccharomyces pombe, UniProt O14040 1-927); assay: EMSA
T3 sequence: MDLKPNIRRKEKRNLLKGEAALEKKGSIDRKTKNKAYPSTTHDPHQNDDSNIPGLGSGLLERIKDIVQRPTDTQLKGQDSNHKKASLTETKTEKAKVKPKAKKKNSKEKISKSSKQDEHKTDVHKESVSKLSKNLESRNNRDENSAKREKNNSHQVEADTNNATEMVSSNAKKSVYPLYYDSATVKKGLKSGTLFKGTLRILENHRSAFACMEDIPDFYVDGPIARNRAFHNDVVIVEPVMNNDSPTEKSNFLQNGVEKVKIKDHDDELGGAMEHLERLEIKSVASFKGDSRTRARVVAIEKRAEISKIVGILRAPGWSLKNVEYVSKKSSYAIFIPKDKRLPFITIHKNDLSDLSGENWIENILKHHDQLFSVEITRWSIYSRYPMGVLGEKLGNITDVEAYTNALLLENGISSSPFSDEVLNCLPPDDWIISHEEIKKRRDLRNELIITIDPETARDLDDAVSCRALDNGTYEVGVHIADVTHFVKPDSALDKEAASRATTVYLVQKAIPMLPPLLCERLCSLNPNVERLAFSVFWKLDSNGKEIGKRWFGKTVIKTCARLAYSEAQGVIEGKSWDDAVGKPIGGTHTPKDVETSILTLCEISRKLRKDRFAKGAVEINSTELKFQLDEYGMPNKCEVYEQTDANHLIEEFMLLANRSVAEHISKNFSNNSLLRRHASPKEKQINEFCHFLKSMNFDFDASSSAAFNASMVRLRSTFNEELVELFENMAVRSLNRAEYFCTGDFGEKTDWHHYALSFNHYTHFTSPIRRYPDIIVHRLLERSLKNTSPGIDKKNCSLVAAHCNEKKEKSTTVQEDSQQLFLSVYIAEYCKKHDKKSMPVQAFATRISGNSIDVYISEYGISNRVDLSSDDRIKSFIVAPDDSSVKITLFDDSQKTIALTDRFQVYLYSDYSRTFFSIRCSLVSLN

UUUUUUUUUUUUU (ssRNA) [U13]
binding result [1]: binds

GUUUUGUAUAGAAAUCAAUGUUUUUUUUUUUUUUUU (ssRNA) [Adh1-U16]
binding result [2]: binds
binding result [3]: binds
